The results in this text go back to patent US20220313819A1 (ARCH ONCOLOGY, published 2022).

The target of assay [1] is T1, recombinant human His-CD47 (human, UniProt Q08722 19-139).
T1 construct: bought reagent; also called His-tagged human CD47 (Acro Biosystems); not shown: His tag
In words: ELISA, adsorbed His-CD47, pH 6. The procedure: (§1) Binding by soluble anti-CD47 mAbs to immobilized recombinant human CD47 and to human CD47 expressed on cells was measured in vitro. For the in vitro binding to recombinant CD47, His-CD47 (AcroBiosystems) was adsorbed to high-binding microtiter plates overnight at 4° C. The wells were washed and varying concentrations of anti-CD47 mAbs were added to the wells in buffers with a of either pH 6 or pH 8 for 1 hour. The wells were washed and then incubated with HRP-labelled secondary antibody for 1 hour at pH 6 or pH 8 followed by addition of peroxidase substrate. The apparent affinities were calculated using non-linear fit model (Graphpad Prism).
For orientation: In an ELISA, binding on a coated surface is turned into a signal by an enzyme label.

The target in assay [2] is T1, recombinant human His-CD47. Briefly: ELISA, adsorbed His-CD47, pH 8. As for the experimental part:
as §1

The target of assay [3] is T2, human CD47 (human, UniProt Q08722 19-292).
T2 construct: also called hCD47; CD47 on OV10 hCD47 cells, human RBCs, Jurkat cells and normal human cells
In words: flow cytometry, human RBCs. The procedure:
(§2) Binding activities of chimeric and humanized VLX4, VLX8, and VLX9 mAbs to human CD47 on hRBCs were also determined using flow cytometry.
A general note: A flow cytometer gives signals particle by particle.

In assay [4] the target is T2, human CD47. Briefly: cell ELISA, OV10 hCD47 cells. As for the experimental part:
OV10 hCD47 cells were grown in IMDM medium containing 10% heat inactivated fetal bovine serum (BioWest; S01520). […] Cells were washed, various concentrations of purified antibodies added in IMDM and incubated at 37° C. for 1 hr in […]. Cells were then washed with media and incubated for an additional hour at 37° C. with HRP labelled secondary anti-human antibody (Promega) diluted 1/2500 in media. Cells were washed three times with PBS, and the peroxidase substrate 3,3′, 5,5′-tetramethylbenzidine was added (Sigma; Catalog #T4444). […] The apparent binding affinities of these clones to human OV10 hCD47 cells was determined by non-linear fit (Prism GraphPad software).

Assay [5] deals with T2, human CD47. In words: flow cytometry on freshly isolated human RBCs, FITC-labelled donkey anti-human antibody, MFI. As for the experimental part: FIG. 4B. Binding of VLX8 Humanized mAbs to Human RBCs. […] RBCs were incubated for 1 hr at 37° C. with various concentrations of VLX8 mAbs, washed and incubated for 1 hr with FITC-labeled donkey anti-human antibody. Cells were washed and antibody binding measured using flow cytometry.
as §2

Assay [6] deals with T2, human CD47. The description is as above. The procedure:
FIG. 4A. Binding of VLX8 Humanized mAbs to Human RBCs. […] RBCs were incubated for 1 hr at 37° C. with various concentrations of VLX8 mAbs, washed and incubated for 1 hr with FITC-labeled donkey anti-human antibody. Cells were washed and antibody binding measured using flow cytometry.
as §2
The source holds these as a separate data set.

For assay [7], the target named is T2, human CD47. The assay is described as above. As for the experimental part:
FIG. 7. Binding of VLX9 Humanized mAbs to Human RBCs. […] RBCs were incubated for 60 minutes at 37° C. with various concentrations of VLX9 mAbs, washed and incubated for 1 hr with FITC-labelled donkey anti-human antibody. Cells were washed and antibody binding measured using flow cytometry.
as §2
This is another data set of the same source.

Positions count from the first letter of the chain named. Numbers in names are those of the source. Where two headings read alike, the source gives them in different places.

B1: VLX9 IgG (murine) (antibody, V domains shown)
VH: QVQLQQFGAELAKPGASVQMSCKASGYTFTNYWIHWVKQRPGQGLEWIGYTDPRTDYTEYNQKFKDKATLAADRSSSTAYMRLSSLTSEDSAVYYCAGGGRVGLGYWGHGSSVTVSS
VL: DVFMTQTPLSLPVSLGDQASISCRSSQNIVQSNGNTYLEWYLQKPGQSPKLLIYKVFHRFSGVPDRFSGSGSGTDFTLKISRVEAEDLGVYYCFQGSHVPWTFGGGTKVEIK
notes: murine IgG; tied through the names Vx9murH04/Vx9murL04; also called murine VLX9 antibody
Turning to B1, the Kd – broadly, the constant that tells how readily two partners part at equilibrium – in assay [1] was 0.091 nM; in assay [2] it was 0.076 nM.

B2: VLX4 IgG1 (xi) (antibody)
heavy: not shown
light: DVLMTQTPLSLPVNLGDQASISCRSRQSIVHTNGNTYLGWFLQKPGQSPKLLIYKVSNRFSGVPDRFSGSGSGTDFTLTISRVEAEDLGVYYCFQGSHVPYTFGGGTKLEIKRTVAAPSVFIFPPSDEQLKSGTASVVCLLNNFYPREAKVQWKVDNALQSGNSQESVTEQDSKDSTYSLSSTLTLSKADYEKHKVYACEVTHQGLSSPVTKSFNRGEC
notes: murine-human chimera, human IgG1, human kappa
Consider B2, for which the Kd in the assay with human CD47 [3] is 0.104 nM; in the assay with human CD47 [4] it was 0.315 nM.

B3: VLX4 IgG1 N297Q (xi) (antibody)
heavy: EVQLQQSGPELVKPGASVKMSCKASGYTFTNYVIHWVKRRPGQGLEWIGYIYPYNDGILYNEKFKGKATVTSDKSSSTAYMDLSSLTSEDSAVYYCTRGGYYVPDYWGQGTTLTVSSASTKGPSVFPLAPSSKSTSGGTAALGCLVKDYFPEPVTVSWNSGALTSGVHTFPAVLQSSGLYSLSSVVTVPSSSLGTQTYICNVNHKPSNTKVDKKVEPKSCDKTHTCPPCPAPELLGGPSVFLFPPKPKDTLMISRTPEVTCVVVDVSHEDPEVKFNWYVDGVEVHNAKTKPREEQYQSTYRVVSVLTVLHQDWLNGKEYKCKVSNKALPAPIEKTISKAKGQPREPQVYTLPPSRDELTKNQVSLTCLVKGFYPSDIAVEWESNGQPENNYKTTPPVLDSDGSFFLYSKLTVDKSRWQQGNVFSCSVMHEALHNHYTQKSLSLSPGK
light: B2 light
notes: murine-human chimera, human IgG1-N297Q, human kappa
With B3, the Kd is 0.092 nM in the assay with human CD47 [3] and 0.258 nM with human CD47 [4].

B4: VLX8hum_08 IgG2 (antibody, V domains shown)
VH: EVQLVQSGAEVKKPGESLKISCKGSGYSFTNYYIHWVRQMPGKGLEWMGYIDPLNGDTTYNQKFKGQVTISADKSISTAYLQWSSLKASDTAMYYCARGGKRAMDYWGQGTLVTVSS
VL: DIQMTQSPSSLSASVGDRVTITCRASQSISNYLNWYQQKPGKAPKLLIYYTSRLYSGVPSRFSGSGSGTDFTLTISSLQPEDFATYYCQQGNTLPWTFGQGTKVEIKR
As to B4, the results for the Kd with human CD47 [3] and in the assay with human CD47 [4] were 0.82 nM and 0.464 nM, respectively. Besides, in the assay with human CD47 [5], the EC50 (read off the curve) (usually the concentration needed to bring the measured effect to its halfway point) is approximately 0.7 nM.

B5: VLX8hum_07 IgG2 (antibody, V domains shown)
VH: QVQLVQSGAEVKKPGSSVKVSCKASGYSFTNYYIHWVRQAPGQGLEWMGYIDPLNGDTTYNQKFKGRVTITADESTSTAYMELSSLRSEDTAVYYCARGGKRAMDYWGQGTLVTVSS
VL: B4 VL
Regarding B5, the Kd with human CD47 [3] was determined as 0.671 nM; with human CD47 [4], 0.46 nM.

B6: VLX8hum_06 IgG2 (antibody, V domains shown)
VH: B5 VH with S16A, I70M, A72R, E74T, A79V
VL: B4 VL
Take B6: the Kd with human CD47 [3] is 0.246 nM; with human CD47 [4], 0.403 nM.

B7: VLX8hum_09 IgG2 (antibody, V domains shown)
VH: B5 VH with N61A, K65Q
VL: B4 VL
Take B7: the dissociation constant Kd turned out to be 1.74 nM with human CD47 [3] and 0.68 nM in the assay with human CD47 [4].

B8: VLX8 IgG4 PE (xi) (antibody)
heavy: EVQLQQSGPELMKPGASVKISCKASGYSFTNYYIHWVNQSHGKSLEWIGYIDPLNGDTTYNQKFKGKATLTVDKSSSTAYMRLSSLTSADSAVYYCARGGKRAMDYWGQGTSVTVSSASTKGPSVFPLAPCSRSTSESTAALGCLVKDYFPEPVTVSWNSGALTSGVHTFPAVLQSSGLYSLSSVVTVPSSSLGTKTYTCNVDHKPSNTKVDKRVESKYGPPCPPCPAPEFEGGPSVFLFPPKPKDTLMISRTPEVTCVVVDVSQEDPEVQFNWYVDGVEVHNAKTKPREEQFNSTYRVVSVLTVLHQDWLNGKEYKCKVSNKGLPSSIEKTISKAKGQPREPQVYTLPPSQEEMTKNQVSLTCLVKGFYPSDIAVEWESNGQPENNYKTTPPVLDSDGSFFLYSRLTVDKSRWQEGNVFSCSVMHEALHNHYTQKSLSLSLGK
light: DIQMTQTTSSLSASLGDRVTISCRASQDISNYLNWYQQKPDGTVKLLIYYTSRLYSGVPSRFSGSGSGTDYSLTISNLEQEDIATYFCQQGNTLPWTFGGGTKLEIKRTVAAPSVFIFPPSDEQLKSGTASVVCLLNNFYPREAKVQWKVDNALQSGNSQESVTEQDSKDSTYSLSSTLTLSKADYEKHKVYACEVTHQGLSSPVTKSFNRGEC
notes: murine-human chimera; tied through the names Vx8mur-H03/Vx8murL03 full length chains, not by an explicit VLX8 statement; also called VLX8 IgG4PE chimera
B8: the “EC50 (read off the curve)” value with human CD47 [6] was approximately 0.2 nM. Also, the dissociation constant Kd with human CD47 [3] came out at 0.077 nM; in the assay with human CD47 [4], 0.056 nM.

B9: VLX8 IgG1 N297Q (xi) (antibody)
heavy: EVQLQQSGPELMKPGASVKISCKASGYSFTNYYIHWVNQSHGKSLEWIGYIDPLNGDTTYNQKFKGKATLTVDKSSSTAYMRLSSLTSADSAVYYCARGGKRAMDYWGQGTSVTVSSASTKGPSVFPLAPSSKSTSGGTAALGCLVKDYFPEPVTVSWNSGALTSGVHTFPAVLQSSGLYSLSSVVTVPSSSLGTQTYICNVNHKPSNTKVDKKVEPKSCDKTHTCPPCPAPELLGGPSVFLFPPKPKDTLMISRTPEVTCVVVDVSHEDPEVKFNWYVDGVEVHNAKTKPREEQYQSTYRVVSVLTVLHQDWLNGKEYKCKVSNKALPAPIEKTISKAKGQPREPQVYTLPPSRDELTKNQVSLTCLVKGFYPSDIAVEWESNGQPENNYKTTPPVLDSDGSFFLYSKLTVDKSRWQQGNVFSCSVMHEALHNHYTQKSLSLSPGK
light: B8 light
notes: murine-human chimera
Consider B9, for which the Kd in the assay with human CD47 [3] is 0.091 nM; in the assay with human CD47 [4], 0.042 nM.

B10: VLX9 IgG2 (xi) (antibody)
heavy: QVQLQQFGAELAKPGASVQMSCKASGYTFTNYWIHWVKQRPGQGLEWIGYTDPRTDYTEYNQKFKDKATLAADRSSSTAYMRLSSLTSEDSAVYYCAGGGRVGLGYWGHGSSVTVSSASTKGPSVFPLAPCSRSTSESTAALGCLVKDYFPEPVTVSWNSGALTSGVHTFPAVLQSSGLYSLSSVVTVPSSNFGTQTYTCNVDHKPSNTKVDKTVERKCCVECPPCPAPPVAGPSVFLFPPKPKDTLMISRTPEVTCVVVDVSHEDPEVQFNWYVDGVEVHNAKTKPREEQFNSTFRVVSVLTVVHQDWLNGKEYKCKVSNKGLPAPIEKTISKTKGQPREPQVYTLPPSREEMTKNQVSLTCLVKGFYPSDIAVEWESNGQPENNYKTTPPMLDSDGSFFLYSKLTVDKSRWQQGNVFSCSVMHEALHNHYTQKSLSLSPGK
light: DVFMTQTPLSLPVSLGDQASISCRSSQNIVQSNGNTYLEWYLQKPGQSPKLLIYKVFHRFSGVPDRFSGSGSGTDFTLKISRVEAEDLGVYYCFQGSHVPWTFGGGTKVEIKRTVAAPSVFIFPPSDEQLKSGTASVVCLLNNFYPREAKVQWKVDNALQSGNSQESVTEQDSKDSTYSLSSTLTLSKADYEKHKVYACEVTHQGLSSPVTKSFNRGEC
notes: murine-human chimera; also called VLX9 IgG2 chimera
Regarding B10, the half-maximal effective concentration (EC50 (read off the curve)) with human CD47 [7] is approximately 0.6 nM. Moreover, the Kd in assay [1] came out at 0.13 nM; in the assay with human CD47 [3], 0.742 nM; in the assay with human CD47 [4], 0.88 nM; in assay [2], 0.137 nM.

B11: VLX9 IgG1 (xi) (antibody)
heavy: not shown
light: B10 light
notes: murine-human chimera
B11: the Kd was determined as 0.381 nM with human CD47 [3] and 0.28 nM in the assay with human CD47 [4].

B12: VLX9 IgG4 PE (xi) (antibody)
heavy: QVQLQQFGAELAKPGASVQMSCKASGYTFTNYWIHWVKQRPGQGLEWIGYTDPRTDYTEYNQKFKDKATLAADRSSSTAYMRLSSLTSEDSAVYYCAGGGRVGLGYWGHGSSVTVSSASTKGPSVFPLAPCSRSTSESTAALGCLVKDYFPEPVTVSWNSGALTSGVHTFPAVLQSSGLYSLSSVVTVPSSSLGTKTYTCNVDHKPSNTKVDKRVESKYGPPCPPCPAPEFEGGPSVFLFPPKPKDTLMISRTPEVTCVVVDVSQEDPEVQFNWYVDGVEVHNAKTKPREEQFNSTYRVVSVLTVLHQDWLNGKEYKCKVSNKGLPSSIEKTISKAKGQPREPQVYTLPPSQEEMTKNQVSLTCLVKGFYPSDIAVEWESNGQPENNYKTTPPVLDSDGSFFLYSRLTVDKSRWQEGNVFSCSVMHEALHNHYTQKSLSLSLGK
light: B10 light
notes: murine-human chimera
For the molecule B12, the Kd in assay [1] turned out to be 0.133 nM; in the assay with human CD47 [3], 0.126 nM; with human CD47 [4] it was 0.293 nM; in assay [2], 0.16 nM.

B13: VLX9 IgG1 N297Q (xi) (antibody)
heavy: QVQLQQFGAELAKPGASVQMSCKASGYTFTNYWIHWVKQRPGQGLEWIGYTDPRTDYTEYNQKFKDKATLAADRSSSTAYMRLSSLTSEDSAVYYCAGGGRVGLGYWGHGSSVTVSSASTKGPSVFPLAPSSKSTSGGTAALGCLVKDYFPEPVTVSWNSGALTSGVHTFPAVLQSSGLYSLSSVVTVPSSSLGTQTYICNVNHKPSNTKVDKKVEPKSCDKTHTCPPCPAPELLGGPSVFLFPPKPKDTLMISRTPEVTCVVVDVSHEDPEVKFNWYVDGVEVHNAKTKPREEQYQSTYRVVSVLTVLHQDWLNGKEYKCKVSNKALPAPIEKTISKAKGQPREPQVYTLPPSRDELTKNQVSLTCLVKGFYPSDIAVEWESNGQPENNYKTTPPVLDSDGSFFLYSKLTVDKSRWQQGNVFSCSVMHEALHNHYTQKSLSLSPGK
light: B10 light
notes: murine-human chimera
B13: the Kd stood at 0.099 nM in assay [1], 0.19 nM with human CD47 [3], 0.275 nM in the assay with human CD47 [4] and 0.135 nM in assay [2].
